Data as given in patent US20240059757A1 (VIR BIOTECHNOLOGY, published 2024).
Like-named read-outs stand apart in the source and are kept apart here.

Columns and labels:
[1] = target: T1, SARS-CoV-2 RBD (residues 331-550 of spike from BetaCoV/Wuhan-Hu-1/2019, accession number MN908947) (SARS-CoV-2 Wuhan-Hu-1, UniProt P0DTC2 331-550); assay: BLI (Octet): antibody on Protein A pins, SARS-CoV-2 RBD at 6, 1.5 and 0.4 µg/ml
[2] = target: T2, SARS-CoV-2 RBD-mouse Fc (Sino Biological) (SARS-CoV-2, UniProt P0DTC2 331-541)
[3] = target: T1, SARS-CoV-2 RBD (residues 331-550 of …); assay: ELISA, plate coated with SARS-CoV-2 RBD; antibodies as rIgG1-LS
[4] = target: T1, SARS-CoV-2 RBD (residues 331-550 of …)
[5] = target: T3, SARS-CoV-2 Spike protein (SARS-CoV-2 Wuhan-Hu-1, UniProt P0DTC2 14-1273); assay: cell-based or functional assay
[6] = target: T1, SARS-CoV-2 RBD (residues 331-550 of …); assay: ELISA, plate coated with SARS-CoV-2 RBD; antibodies as rIgG1-LS; remark: listed apart in the source
[7] = target: T4, SARS-CoV RBD (Sino Biological) (SARS-CoV, UniProt P59594 306-527); assay: ELISA
[8] = target: T5, SARS-CoV Spike protein (SARS-CoV, UniProt P59594 14-1255)
[9] = target: T4, SARS-CoV RBD (Sino Biological)
[10] = target: T1, SARS-CoV-2 RBD (residues 331-550 of …); remark: listed apart in the source
[11] = target: T5, SARS-CoV Spike protein; assay: cell-based or functional assay
[12] = target: T1, SARS-CoV-2 RBD (residues 331-550 of …); remark: listed apart in the source
[13] = target: T1, SARS-CoV-2 RBD (residues 331-550 of …); remark: listed apart in the source
[14] = target: T4, SARS-CoV RBD (Sino Biological); remark: listed apart in the source
[15] = target: T1, SARS-CoV-2 RBD (residues 331-550 of …); assay: BLI
[16] = target: T4, SARS-CoV RBD (Sino Biological); assay: BLI
[17] = target: T1, SARS-CoV-2 RBD (residues 331-550 of …); assay: BLI; remark: listed apart in the source
[18] = target: T4, SARS-CoV RBD (Sino Biological); assay: BLI; remark: listed apart in the source
[19] = target: T3, SARS-CoV-2 Spike protein; assay: cell-based or functional assay; remark: listed apart in the source
[20] = target: T2, SARS-CoV-2 RBD-mouse Fc (Sino …); remark: listed apart in the source
[21] = target: T5, SARS-CoV Spike protein; assay: cell-based or functional assay; remark: listed apart in the source
[22] = target: T3, SARS-CoV-2 Spike protein; assay: cell-based or functional assay; remark: listed apart in the source
[23] = target: T3, SARS-CoV-2 Spike protein; assay: cell-based or functional assay; remark: listed apart in the source
[24] = target: T1, SARS-CoV-2 RBD (residues 331-550 of …); assay: ELISA
[25] = target: T4, SARS-CoV RBD (Sino Biological); assay: ELISA; remark: listed apart in the source
[26] = target: T1, SARS-CoV-2 RBD (residues 331-550 of …); remark: listed apart in the source
[27] = target: T4, SARS-CoV RBD (Sino Biological); remark: listed apart in the source
[28] = target: T1, SARS-CoV-2 RBD (residues 331-550 of …); assay: BLI (Octet): antibody on Protein A pins, SARS-CoV-2 RBD at 6, 1.5 and 0.4 µg/ml; remark: listed apart in the source
[29] = target: T1, SARS-CoV-2 RBD (residues 331-550 of …); assay: ELISA, plate coated with SARS-CoV-2 RBD, OD405nm

B1: S2X190 (antibody, V domains shown)
VH: EVQLVESGGGVVQPGRSLRLSCAASGFPFSTYGMHWVRQAPGKGLEWVAVIWYDGSTKYYADSVKGRFTISRDNSKNTLYLQMNSLRAEDTALYYCARVHSSGPGDEYFQHWGQGTLLTVSS
VL: DIVMTQSPSSLSASVGDRVTITCRASQGISSGLAWYQQKPGKGPKVLIYDASSLESGVPSRFSGSASGTDFTLTISSLQPEDFATYFCQQFYSYPLTFGGGTKVEIK
Kd [1]: 923 pM | IC50 [2]: 0.02 µg/mL

B2: S2D43 (antibody, V domains shown)
VH: QVTLKESGPTLVKPTQTLTLTCTFSGFSLSTSGVGVGWLRQPPGKALEWLALIYWDDDKRYSPSLKNRLTVTKDTSKNQVVLTMTNLDPVDTATYYCAHDNTLGGSSTWQSTFDYWGQGTLVTVSS
VL: QSVLTQPPSVSEAPRQRVTISCSGSNSNIGNNAVHWYQQLPGKAPKLLIYYDDLLPSGVSDRFSGSKSGTSASLAISGLQSEDEADYYCAAWDDRMNGPVFGGGTKLTVL
binding result [3]: binds

B3: S2X200 (antibody, V domains shown)
VH: EVHLVESGGGLIQPGGSLRLSCAASGITVSSNYMSWVRQAPGKGLEWVSVIYSGGSTFYADSVKGRFTISRDNSKNTVYLQMNSLRAEDTAVYYCARDLVTYGMDVWGQGTTVTVSS
VL: EIVLTQSPSFLSASVGDRVTITCRASQGISSYLAWYQQKPGKAPKLLIYAASTLQSGVPSRFSGSGSGTEFTLTISSLQPEDFATYYCQQLNGDPPIFGHGTRLEIK
EC50 [4]: 0.00151 µg/mL

B4: S2D60 (antibody, V domains shown)
VH: EVQLVQSGPEVKKPGTSVKVSCKASGFTFMSSAVQWVRQARGQRLEWIGWIVVGSGNTNYTQKFRERVTITRDMSTSTAYMELSSLRSEDTAVYYCAAPRCSGGSCHDGFDIWGQGTMVTVSS
VL: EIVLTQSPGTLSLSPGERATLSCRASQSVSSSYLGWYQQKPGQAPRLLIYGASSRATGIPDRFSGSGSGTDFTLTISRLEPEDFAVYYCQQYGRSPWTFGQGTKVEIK
neutralization IC50 [5]: 0.012 µg/mL | neutralization IC80 [5]: 0.04 µg/mL | neutralization IC90 [5]: 0.084 µg/mL | neutralization IC95 [5]: 0.164 µg/mL | EC50 (read off the curve) [6]: ~0.1 µg/mL | binding result [7]: no binding

B5: S2X259 (antibody, V domains shown)
VH: QVQLVQSGAEVKKPGSSVKVSCKASGGIFNTYTISWVRQAPGQGLEWMGRIILMSGMANYAQKIQGRVTITADKSTSTAYMELTSLRSDDTAVYYCARGFNGNYYGWGDDDAFDISGQGTLVTVYS
VL: QTVLTQPPSVSGAPGQRVTISCTGSNSNIGAGYDVHWYQQLPGTAPKLLICGNSNRPSGVPDRFSGSKSGTSASLAITGLQAEDEADYYCQSYDSSLSGPNWVFGGGTKLTVL
EC50 [8]: 0.00215 µg/mL | EC50 [9]: 0.00151 µg/mL | EC50 (read off the curve) [10]: ~7 µg/mL | neutralization IC50 [11]: 0.0806 µg/mL | EC50 [12]: 0.00352 µg/mL | IC50 [13]: 0.00921 µg/mL | IC50 [14]: 0.01 µg/mL | Kd [15]: ≤ 1 pM | Kd [16]: 537 pM | Kd [17]: 87.4 pM | Kd [18]: 862 pM | neutralization IC50 [19]: 0.184 µg/mL | IC50 [20]: 0.0221 µg/mL | neutralization IC50 [21]: 0.189 µg/mL | neutralization IC50 [22]: 0.046 µg/mL | neutralization IC50 [23]: 0.231 µg/mL | EC50 [24]: 0.0343 µg/mL | EC50 [25]: 0.0285 µg/mL

B6: S2X259 Fab (Fab, V domains shown)
VH: B5 VH
VL: B5 VL
Kd [26]: 80 pM | Kd [27]: 1600 pM

B7: S2X132 (antibody, V domains shown)
VH: EVQLVESGGGLVQPGGSLRLSCAASGFTVSSNYMSWVRQAPGKGLEWVSVIYSGGNTYYADSVKGRFTISRDNSKNTLYLQMISLRAEDTAVYYCARDRRLPSIIFGLDVWGQGTTVTVSS
VL: QSALTQPASVSGSPGQSITISCTGTSSDVGGNNHVSWYRQHPGKAPKLMIYEVSNRPSGVSNRFSGSKSGNTASLTISGLQAGDEADYYCSSFTTYTTDVVFGGGTKLTVL
Kd [28]: 709 pM | IC50 [2]: 0.0248 µg/mL

B8: S2F1 (antibody, V domains shown)
VH: EVQLLESGGGLVQPGGSLRLSCAGSGFSVSNHAMSWVRQAPGKGLEWVSAIGGSDSTTYYADSVKGRFAISRDNSKNTLYLQMNSLRADDTAIYYCAKDNYTSTWFPFDYWGQGTQVIVSS
VL: DVVMTQSPLSLPVTLGQPASISCRSSHSLVHGDGNTYLNWFQQRPGQSPRRLIHKVSNRDSGVPDRFSGSGSGTDFTLKISRVEAEDVGVYYCMQGSYWPPWTFGQGTKVEIN
binding result [29]: binds
